This is an account of results in patent publication US20210130452A1 (Merck KGaA, published 2021).

In test [1] the target is T1, human IL-17A (human, UniProt Q16552 24-155).
T1 construct: secreted form made in Hek293 cells (GenBank U32659); also called hIL-17A; hIL17A
Description: AlphaScreen hIL-17A-IL-17RA; vs IL17MS13B03. A general note: Alpha assays give light when donor and acceptor beads are brought close together.
T1 sequence (Q16552 other isoform, or with tags, fused parts or gaps): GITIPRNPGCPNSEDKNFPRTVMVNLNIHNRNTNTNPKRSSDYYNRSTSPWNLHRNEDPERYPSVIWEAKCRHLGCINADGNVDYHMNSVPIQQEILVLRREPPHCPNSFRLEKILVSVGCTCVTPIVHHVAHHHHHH

The target in test [2] is T2, human IL-17F (human, UniProt Q96PD4 31-163).
T2 construct: made in Hek293 cells (GenBank AF384857); also called hIL-17F; hIL17F
T2 sequence: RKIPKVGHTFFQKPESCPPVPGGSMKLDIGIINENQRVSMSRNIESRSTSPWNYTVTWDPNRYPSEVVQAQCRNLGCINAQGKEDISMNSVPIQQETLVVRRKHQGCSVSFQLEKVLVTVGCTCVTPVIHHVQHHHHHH
The experiment in a line: AlphaScreen hIL-17F-IL-17RC; vs IL17MS13B03.

The target of test [3] is T3, human IL-17A/F heterodimer (human, UniProt Q16552 24-155; Q96PD4 31-163, limits assumed).
T3 construct: bought, made in E. coli (R&D Systems 5194-IL/CF); also called hIL-17A/F; hIL17A/F
T3 sequence (Q16552 24-155 limits assumed, chain 1 of 2, one chain of several): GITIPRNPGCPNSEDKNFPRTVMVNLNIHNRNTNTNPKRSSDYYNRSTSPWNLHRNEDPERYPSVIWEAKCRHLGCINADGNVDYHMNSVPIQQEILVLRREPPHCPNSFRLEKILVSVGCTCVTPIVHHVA
Description: SPR (Biacore) off-rate. (Surface plasmon resonance follows binding to a sensor surface in real time, without labels.)

Test [4] concerns the target T1, human IL-17A. Description: SPR (Biacore) off-rate.
The target in test [5] is T2, human IL-17F. Description: SPR (Biacore) off-rate.
Test [6] has as its target T4, human IL-17A/F heterodimer (human, UniProt Q16552 24-155; Q96PD4 31-163, limits assumed, biotinylated with Sulfo-NHS-LC-Biotin in the AlphaScreen assays only).
T4 construct: also called hIL-17A/F
The experiment in a line: AlphaScreen competition, hIL-17A/F - IL-17RA-Fc.
Target sequence in this assay (Q16552 24-155 limits assumed, chain 1 of 2, one chain of several): as above
Description: (§1) To this mixture, the IL-17RA or IL-17RC Fc-fusions, Acceptor beads and the streptavidin Donor beads were added and further incubated for 1 hour at RT.

The target in test [7] is T5, human IL-17A (human, UniProt Q16552 24-155, biotinylated with Sulfo-NHS-LC-Biotin in the AlphaScreen assays only).
T5 construct: also called hIL-17A; recombinant human IL-17A
T5 sequence (Q16552 other isoform, or with tags, fused parts or gaps): as the sequence (Q16552 other isoform, or with tags, fused parts or gaps) above
The experiment in a line: AlphaScreen competition, hIL-17A - IL-17RC-Fc.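 Note: Read-out after 1 h at room temperature with the receptor Fc-fusion, Acceptor beads and streptavidin-coated Donor beads present.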
Description: as §1

Test [8] has as its target T5, human IL-17A. The experiment in a line: AlphaScreen competition, hIL-17A - IL-17RA-Fc.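 Note: receptor Fc-fusion plus Acceptor and streptavidin Donor beads incubated with the mixture for 1 h at room temperature before reading.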
Description: as §1
Test [9] concerns the target T5, human IL-17A. Description: SPR Biacore, hIL-17A on chip; periplasmic extract (*).
The target of test [10] is T4, human IL-17A/F heterodimer. Description: cell-based or functional assay.
For test [11], the target named is T4, human IL-17A/F heterodimer. Description: AlphaScreen competition, hIL-17A/F - IL-17RC-Fc.
Target sequence in this assay (Q16552 24-155 limits assumed, chain 1 of 2, one chain of several): as the sequence (Q16552 24-155 limits assumed, chain 1 of 2, one chain of several) above
Description: as §1
Test [12] addresses T6, human IL-17F (human, UniProt Q96PD4 31-163, biotinylated with Sulfo-NHS-LC-Biotin in the AlphaScreen assays only).
T6 construct: also called hIL-17F; recombinant human IL-17F
T6 sequence: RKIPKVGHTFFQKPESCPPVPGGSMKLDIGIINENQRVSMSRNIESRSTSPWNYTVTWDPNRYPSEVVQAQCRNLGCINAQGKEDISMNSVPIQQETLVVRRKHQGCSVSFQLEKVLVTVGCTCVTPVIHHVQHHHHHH
The experiment in a line: SPR Biacore, hIL-17F on chip; periplasmic extract (*); NB = no binding.
Description: (§2) Off-rates of the periplasmic extracts containing anti-IL-17 Nanobodies were measured by Surface Plasmon Resonance (SPR) using a Biacore T100 instrument. […] Periplasmic extracts containing IL-17 neutralizing Nanobodies were injected for 2 minutes at a flow rate of 45 μl/min to allow binding to chip-bound antigen. Next, binding buffer without periplasmic extracts was sent over the chip at the same flow rate to allow spontaneous dissociation of bound Nanobody. From the sensorgrams obtained for the different periplasmic extracts koff-values (k₄) were calculated.

Test [13] has as its target T5, human IL-17A. The experiment in a line: cell-based or functional assay.
The target in test [14] is T4, human IL-17A/F heterodimer. The experiment in a line: SPR Biacore, hIL-17A/F on chip; periplasmic extract (*).
Target sequence in this assay (Q16552 24-155 limits assumed, one chain of several): as the sequence (Q16552 24-155 limits assumed, chain 1 of 2, one chain of several) above
Description: as §2
Test [15] has as its target T7, human IL-17F (human, UniProt Q96PD4 31-163).
T7 construct: GenBank AF384857, expressed in Hek293 as 6-His C-terminal tagged protein; also called hIL-17F; IL-17F-6HIS
T7 sequence: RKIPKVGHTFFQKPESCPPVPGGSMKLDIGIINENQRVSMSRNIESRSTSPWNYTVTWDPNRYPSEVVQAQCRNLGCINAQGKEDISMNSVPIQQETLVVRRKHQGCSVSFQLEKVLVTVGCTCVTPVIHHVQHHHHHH
The experiment in a line: SPR, IL-17F-Nanobody complex over captured IL-17RC.
Description: (§3) The receptor (IL-17RA or IL-17RC) was captured via its human Fc-tail by an anti-human IgG-Fc antibody coated on the chip.

The target of test [16] is T8, mouse IL-17F (mouse, UniProt Q7TNI7 29-161).
T8 sequence (looked up): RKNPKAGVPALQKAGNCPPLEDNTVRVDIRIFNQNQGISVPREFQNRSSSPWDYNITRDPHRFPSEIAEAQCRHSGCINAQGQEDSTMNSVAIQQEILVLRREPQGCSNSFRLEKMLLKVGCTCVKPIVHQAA
Description: ELISA, coated IL-17F.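 Note: binding ELISA on coated antigen from various species, with bound Nanobodies revealed by an HRP-linked anti-myc antibody and esTMB substrate.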 In general terms: ELISA stands for enzyme-linked immunosorbent assay.
Description: (§4) Binding of a selected panel of anti-IL-17 Nanobodies to IL-17 of other species was assessed using a binding ELISA. […] HRP (horseradish peroxidase) conjugated anti-myc (Serotec, MCA 2200P) was used for detection using esTMB as substrate.

Test [17] deals with T7, human IL-17F. The experiment in a line: ELISA, coated IL-17F.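 Note: binding ELISA on coated antigen from various species, with bound Nanobodies revealed by an HRP-linked anti-myc antibody and esTMB substrate.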
Description: as §4
Test [18] deals with T9, rat IL-17F (rat, UniProt Q5BJ95 29-161).
T9 sequence (looked up): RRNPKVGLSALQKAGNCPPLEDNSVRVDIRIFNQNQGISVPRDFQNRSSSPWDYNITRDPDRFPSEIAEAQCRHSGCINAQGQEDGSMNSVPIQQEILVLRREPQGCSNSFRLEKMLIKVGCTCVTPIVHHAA
Description: ELISA, coated IL-17F.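 Note: binding ELISA on coated antigen from various species, with bound Nanobodies revealed by an HRP-linked anti-myc antibody and esTMB substrate.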
Description: as §4

For test [19], the target named is guinea pig IL-17A (guinea pig). The experiment in a line: ELISA, coated IL-17A.
Description: as §4
Test [20] deals with T10, rat IL-17A (rat, UniProt Q61453 18-150, limits assumed).
T10 sequence (looked up): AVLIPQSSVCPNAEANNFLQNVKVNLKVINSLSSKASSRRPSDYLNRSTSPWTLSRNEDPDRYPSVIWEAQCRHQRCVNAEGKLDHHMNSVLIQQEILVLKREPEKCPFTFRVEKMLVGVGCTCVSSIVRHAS
The experiment in a line: ELISA, coated IL-17A.
Description: as §4

In test [21] the target is T11, marmoset IL-17A (marmoset, IL-17A is a disulfide-linked homodimer. One chain is given.).
T11 chain: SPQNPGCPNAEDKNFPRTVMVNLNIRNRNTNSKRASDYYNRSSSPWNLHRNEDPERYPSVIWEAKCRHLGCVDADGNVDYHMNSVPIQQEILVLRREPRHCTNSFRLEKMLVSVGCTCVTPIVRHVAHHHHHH
Description: ELISA, coated IL-17A.
Description: as §4

The target in test [22] is T12, mouse IL-17A (mouse, UniProt Q62386 26-158).
T12 sequence (looked up): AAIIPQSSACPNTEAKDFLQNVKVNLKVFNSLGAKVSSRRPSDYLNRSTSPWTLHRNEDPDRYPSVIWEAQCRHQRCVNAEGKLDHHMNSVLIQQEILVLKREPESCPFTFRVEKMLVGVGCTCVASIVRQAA
The experiment in a line: ELISA, coated IL-17A.
Description: as §4

Test [23] concerns the target T13, human IL-17A (human, UniProt Q16552 24-155).
T13 construct: secreted form (GenBank U32659) expressed in Hek293 with C-terminal 6-His; also called hIL-17A; IL-17A-6HIS
The experiment in a line: ELISA, coated IL-17A.
T13 sequence (Q16552 other isoform, or with tags, fused parts or gaps): as the sequence (Q16552 other isoform, or with tags, fused parts or gaps) above
Description: as §4

Test [24] deals with T13, human IL-17A. The experiment in a line: SPR, IL-17A-Nanobody complex over captured IL-17RA.
Description: as §3
Test [25] concerns the target T6, human IL-17F. Description: AlphaScreen competition, hIL-17F - IL-17RC-Fc.
Description: as §1

B1: IL17MS3047 (VHH)
VHH: EVQLVESGGGLVQPGGSLRLSCAASGRANSINWFGWFRQAPGKEREFVAGIRWSDAYTEYAASVKGRFTISRDNSKNTVYLQMNSLRPEDTAVYYCVLDLSTVRYWGQGTLVTVSS
notes: variant of IL17MS13B03; Kabat numbering
Consider B1, for which the “IC50 fold difference compared to WT” value came out at 1.1 fold in test [1] and 0.7 fold in test [2]. The koff (usually the first-order rate constant of dissociation) in test [3] was 0.000538 s⁻¹; in [4], 0.000252 s⁻¹; in test [5], 0.00348 s⁻¹.

B2: IL17MS3051 (VHH)
VHH: EVQLVESGGGSVQAGDSLRLSCAASGRAFSINWFGWFRQTPGKEREFVAGIRWSDAYTEYANSVKGRFTISRDNAKNTVDLQMDSLKPEDTAVYYCVLDLSTVRYWGQGTQVTVSS
notes: as for B1
For B2, the “IC50 fold difference compared to WT” value was 1.4 fold in [1] and 0.4 fold in test [2]. For the same molecule, the koff came out at 0.000396 s⁻¹ in test [3], 0.000205 s⁻¹ in test [4] and 0.00216 s⁻¹ in test [5].

B3: IL17MS3053 (VHH)
VHH: EVQLVESGGGSVQAGDSLRLSCAASGRANTINWFGWFRQTPGKEREFVAGIRWSDAYTEYANSVKGRFTISRDNAKNTVDLQMDSLKPEDTAVYYCVLDLSTVRYWGQGTQVTVSS
notes: as for B1
As to B3, the entries for the “IC50 fold difference compared to WT” value in test [1] and in test [2] were 1.3 fold and 1.2 fold, respectively. For the same molecule, the figures for the koff in test [3], in [4] and in test [5] were 0.00052 s⁻¹, 0.000258 s⁻¹ and 0.00982 s⁻¹, respectively.

B4: IL17MS3052 (VHH)
VHH: EVQLVESGGGSVQAGDSLRLSCAASGRASSINWFGWFRQTPGKEREFVAGIRWSDAYTEYANSVKGRFTISRDNAKNTVDLQMDSLKPEDTAVYYCVLDLSTVRYWGQGTQVTVSS
notes: as for B1
With B4, the “IC50 fold difference compared to WT” value in [1] is 0.9 fold; in test [2] it was 0.5 fold. For the same molecule, the off-rate (koff) in test [3] stood at 0.000518 s⁻¹; in [4] it was 0.000289 s⁻¹; in test [5] it was 0.00439 s⁻¹.

B5: 01D06 (VHH)
VHH: EVQLVESGGGLVQAGGSLRLSCAADGRTFSTYGMTWFRQVPGKEREFVAHIPRSTYSPYYANSVKGRFTIARDDAKSTVYLQMNSLKPEDTAVYYCAVFTGGTYYVPTAYDYWGQGTQVTVSS
notes: Class 2 Nanobody (anti-IL-17A and IL-17A/F); not shown: c-myc, His6 tag
B5: the IC50 – broadly, the point on the concentration scale where inhibition reaches its midpoint – in test [6] was 0.401 nM; in test [7], 1.52 nM; in [8] it was 0.618 nM; in [11] it was 0.198 nM. For the same molecule, the koff is 0.00097 s⁻¹ in test [9] and 0.0013 s⁻¹ in test [14]. Further, the “IL-17A/F-induced IL-6 production in HT-1080 cells, Emax” value in test [10] turned out to be 79.5%. The “IL-17A/F-induced IL-6 production in HT-1080 cells, IC50” value in [10] was determined as 51.1 nM. In [12], the binding result was “no binding”. For the same molecule, in test [13], the “IL-17A-induced IL-6 production in HT-1080 cells, Emax” value (shortened to “IL-17A-induced IL-6 production … Emax”) turned out to be 98.3%. The “IL-17A-induced IL-6 production in HT-1080 cells, IC50” value (shortened to “IL-17A-induced IL-6 production … IC50”) in [13] turned out to be 42.8 nM.

B6: 04A02 (VHH)
VHH: EVQLVESGGGLVQPGGSLRLSCAASRNINIINYMAWYRQAPGNQRELVAAMTSDATTEYADSVKGRFTISRDIPENTVYLQMNSLKPEDTAVYYCNAKGIWDYLGRRDFGDYWGQGTQVTVSS
notes: as for B5
As to B6, the IC50 in test [6] stood at 1.96 nM; in test [7], 0.837 nM; in [8] it was 0.399 nM; in test [11], 3.17 nM. The values for the koff in test [9] and in [14] were 0.0013 s⁻¹ and 0.011 s⁻¹, respectively. Moreover, in test [10], the “IL-17A/F-induced IL-6 production in HT-1080 cells, Emax” value stood at 67.6%. Also, the “IL-17A/F-induced IL-6 production in HT-1080 cells, IC50” value in [10] came out at 70.4 nM. The binding result in test [12] is listed as “no binding”. Moreover, the “IL-17A-induced IL-6 production … Emax” value in test [13] came to 102%. The “IL-17A-induced IL-6 production … IC50” value in test [13] amounted to 12.6 nM.

B7: 17C01 (VHH)
VHH: EVQLVESGGRLVQAGGSLRLPCAASGRTFTSYPMGWFRQAPGKEREFVAAISMSGDDAAYADFVRGRFTISRDDARNTVYLHMTSLKPEDTAVYYCAARTSYDGTYDYIDDYSYWGQGTQVTVSS
notes: Class 4
Take B7: the “% Biacore binding (IL-17F-NB)-IL-17RC” value in [15] stood at 32.5%. The OD in test [16] is -0.0005 OD; in [17], 0.772 OD; in test [18], 0.0025 OD; in test [19], 0.007 OD; in test [20], 0 OD; in test [21], 1.84 OD. For the same molecule, the figures for the OD in [22] and in test [23] were -0.001 OD and 1.83 OD, respectively. Also, in test [24], the “% Biacore binding (IL-17A-NB)-IL-17RA” value is -2.01%.

B8: 09D10 (VHH)
VHH: EVQLVESGGGLVQAGGSLSLSCAASGSVFRIDVMRWHRQAPGKQREFLASIASGGTTNYADSVKGRFTISRDNAKNTVYLQMNSLKPEDTAVYYCGANAESGPYTYWGLGTQVTVSS
notes: as for B5
Take B8: the IC50 in test [6] amounted to 9.02 nM; in [7], 1.12 nM; in test [8] it was 0.211 nM; in test [25] it was 69.4 nM; in test [11], 8.65 nM. Further, the koff in test [9] turned out to be 0.00015 s⁻¹; in [14] it was 0.0017 s⁻¹. Further, the “IL-17A/F-induced IL-6 production in HT-1080 cells, Emax” value in test [10] came to 55%. Further, the “IL-17A/F-induced IL-6 production in HT-1080 cells, IC50” value in test [10] came out at 124 nM. Also, the “IL-17A-induced IL-6 production … Emax” value in [13] was determined as 93.5%. The “IL-17A-induced IL-6 production … IC50” value in test [13] is 8.5 nM.
